Data taken from publication PMC8139589, “A flexible multiplexed immunosensor for point-of-care in situ wound monitoring”.

How the values were obtained:
[1] = biological target: IL-8 (human, UniProt P10145 28-99); assay: electrochemical aptasensor (SWV); serum; 0-30 ng/ml; Serum as wound-exudate mimic; about 30 min incubation to equilibrium; aptamers immobilized at 10 uM in TE buffer, MCH passivation; assay pH and temperature not; settings: protein: commercial; label: 5' C6 thiol; 3' methylene blue; hairpin
[2] = biological target: IL-6 (human, UniProt P05231 30-212); assay: as above; settings: protein: commercial; label: 5' C6 thiol; 3' methylene blue; hairpin
[3] = biological target: TNF-alpha (human, UniProt P01375 77-233); assay: electrochemical aptasensor (SWV); serum; 0-2 ng/ml; Serum as wound-exudate mimic; about 30 min incubation to equilibrium; aptamers immobilized at 10 uM in TE buffer, MCH passivation; assay pH and temperature not; settings: protein: commercial; chain copies: 3; label: 5' methylene blue; 3' C3 thiol; hairpin
TNF-alpha, sequence (P01375 77-233): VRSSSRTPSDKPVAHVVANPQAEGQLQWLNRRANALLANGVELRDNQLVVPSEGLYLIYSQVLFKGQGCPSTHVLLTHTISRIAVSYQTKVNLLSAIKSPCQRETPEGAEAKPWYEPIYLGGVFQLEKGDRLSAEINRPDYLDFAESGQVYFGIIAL

IL-8, sequence (P10145 28-99): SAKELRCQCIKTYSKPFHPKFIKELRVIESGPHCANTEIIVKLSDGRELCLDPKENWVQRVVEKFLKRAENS
IL-6, sequence (P05231 30-212): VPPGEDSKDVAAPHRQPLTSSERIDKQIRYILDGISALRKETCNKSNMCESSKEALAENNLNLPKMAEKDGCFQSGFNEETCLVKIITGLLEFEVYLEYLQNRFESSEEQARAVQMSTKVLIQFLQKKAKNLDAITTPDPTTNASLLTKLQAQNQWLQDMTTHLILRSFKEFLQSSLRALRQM

## GGGGGCUUAUCAUUCCAUUUAGUGUUAUGAUAACC (structured_RNA, none printed (ribo)) [IL-8 aptamer]
[1]
  binding result: binds

## GGTGGCAGGAGGACTATTTATTTGCTTTTCT (structured_DNA) [IL-6 aptamer]
[2]
  binding result: binds

## GGAGUAUCUGAUGACAAUUCGGAGCUCC (structured_RNA, phosphorothioate at all linkages) [TNF-alpha aptamer]
[3]
  binding result: binds
